Assay results: the Immune Epitope Database (IEDB)
pIC50, pKd: −log10 of the molar value.

How the values were obtained:
[1] = target: HLA-B*07:02; assay: IEDB peptide-MHC binding, purified MHC/competitive/fluorescence; ≥ and ≤ were set here for values at or beyond the usual limits of such assays
[2] = target: HLA-B*27:05; assay: IEDB peptide-MHC binding, purified MHC/direct/fluorescence; filed as Kd, often an IC50 or EC50 that approximates it; ≥ and ≤ were set here for values at or beyond the usual limits of such assays; settings: source organism: Homo sapiens
[3] = target: HLA-B*40:01; assay: as above; settings: source organism: Homo sapiens
[4] = target: HLA-B*15:42; assay: IEDB peptide-MHC binding, purified MHC/competitive/fluorescence; filed as Kd, often an IC50 or EC50 that approximates it; ≥ and ≤ were set here for values at or beyond the usual limits of such assays
[5] = target: HLA-B*27:20; assay: as above
[6] = target: HLA-B*45:06; assay: as above
[7] = target: HLA-B*83:01; assay: as above
[8] = target: HLA-A*26:02; assay: IEDB peptide-MHC binding, purified MHC/direct/fluorescence; filed as Kd, often an IC50 or EC50 that approximates it; ≥ and ≤ were set here for values at or beyond the usual limits of such assays; settings: source organism: Geobacillus sp. WCH70
[9] = target: HLA-A*01:01; assay: IEDB peptide-MHC binding, purified MHC/competitive/fluorescence; ≥ and ≤ were set here for values at or beyond the usual limits of such assays
[10] = target: HLA-A*02:11; assay: IEDB peptide-MHC binding, purified MHC/direct/fluorescence; filed as Kd, often an IC50 or EC50 that approximates it; ≥ and ≤ were set here for values at or beyond the usual limits of such assays; settings: source organism: dengue virus type 1
[11] = target: HLA-A*02:12; assay: as above; settings: source organism: dengue virus type 1
[12] = target: HLA-A*02:19; assay: as above; settings: source organism: dengue virus type 1
[13] = target: HLA-C*08:02; assay: as above
[14] = target: HLA-A*02:03; assay: IEDB peptide-MHC binding, purified MHC/competitive/radioactivity; filed as Kd, often an IC50 or EC50 that approximates it; ≥ and ≤ were set here for values at or beyond the usual limits of such assays; settings: source organism: Dengue virus 1 Brazil/97-11/1997
[15] = target: HLA-A*02:17; assay: as above; settings: source organism: Dengue virus 1 Singapore/S275/1990
[16] = target: HLA-A*24:02; assay: as above; settings: source organism: Dengue virus 1 Brazil/97-11/1997
[17] = target: HLA-A*80:01; assay: IEDB peptide-MHC binding, purified MHC/direct/fluorescence; filed as Kd, often an IC50 or EC50 that approximates it; ≥ and ≤ were set here for values at or beyond the usual limits of such assays
[18] = target: HLA-B*57:01; assay: IEDB peptide-MHC binding, purified MHC/competitive/radioactivity; filed as Kd, often an IC50 or EC50 that approximates it; ≥ and ≤ were set here for values at or beyond the usual limits of such assays; settings: source organism: Dengue virus 1 Brazil/97-11/1997
[19] = target: HLA-A*01:01; assay: IEDB peptide-MHC binding, purified MHC/direct/fluorescence; filed as Kd, often an IC50 or EC50 that approximates it; ≥ and ≤ were set here for values at or beyond the usual limits of such assays
[20] = target: HLA-A*03:01; assay: IEDB peptide-MHC binding, purified MHC/competitive/fluorescence; filed as Kd, often an IC50 or EC50 that approximates it; ≥ and ≤ were set here for values at or beyond the usual limits of such assays; settings: source organism: Toxoplasma gondii
[21] = target: HLA-A*32:15; assay: as above; settings: source organism: Toxoplasma gondii
[22] = target: HLA-A*68:23; assay: as above; settings: source organism: Toxoplasma gondii
[23] = target: HLA-B*07:02; assay: as above
[24] = target: HLA-B*08:01; assay: IEDB peptide-MHC binding, purified MHC/direct/fluorescence; filed as Kd, often an IC50 or EC50 that approximates it; ≥ and ≤ were set here for values at or beyond the usual limits of such assays; settings: source organism: Bacillus anthracis str. Sterne
[25] = target: HLA-B*08:02; assay: as above; settings: source organism: Bacillus anthracis str. Sterne
[26] = target: HLA-C*06:02; assay: as above
[27] = target: HLA-C*14:02; assay: as above
[28] = target: HLA-C*15:02; assay: as above
[29] = target: HLA-C*03:03; assay: as above
[30] = target: HLA-C*12:03; assay: as above
[31] = target: HLA-B*48:01; assay: IEDB peptide-MHC binding, purified MHC/competitive/fluorescence; filed as Kd, often an IC50 or EC50 that approximates it; ≥ and ≤ were set here for values at or beyond the usual limits of such assays
[32] = target: HLA-C*07:02; assay: IEDB peptide-MHC binding, purified MHC/direct/fluorescence; filed as Kd, often an IC50 or EC50 that approximates it; ≥ and ≤ were set here for values at or beyond the usual limits of such assays; settings: source organism: Mycobacterium tuberculosis str. Haarlem
[33] = target: HLA-B*15:01; assay: IEDB peptide-MHC binding, purified MHC/competitive/fluorescence; filed as Kd, often an IC50 or EC50 that approximates it; ≥ and ≤ were set here for values at or beyond the usual limits of such assays; settings: source organism: Shigella flexneri 2a str. 301
[34] = target: HLA-B*35:01; assay: as above; settings: source organism: Shigella flexneri 2a str. 301
[35] = target: HLA-A*26:03; assay: IEDB peptide-MHC binding, purified MHC/direct/fluorescence; filed as Kd, often an IC50 or EC50 that approximates it; ≥ and ≤ were set here for values at or beyond the usual limits of such assays; settings: source organism: Cryptosporidium parvum Iowa II
[36] = source organism: Pan troglodytes
[37] = source organism: dengue virus type 1
[38] = source organism: Zaire ebolavirus
[39] = source organism: West Nile virus
[40] = source organism: Toxoplasma gondii
[41] = source organism: Vibrio parahaemolyticus
[42] = source organism: Bacillus anthracis str. A2012
[43] = source organism: Cryptosporidium parvum Iowa II
[44] = source organism: Mycobacterium tuberculosis str. Haarlem
[45] = source organism: Listeria monocytogenes EGD-e

With GPCPGDYAF the pIC50 ([1]; source organism: Sudan ebolavirus) was ≤ 3.14.
For RRHWGGNVL, the pKd [2] was 5.64, the pKd [3] was ≤ 4.37 and the pKd [4, 36] was ≤ 5.30. For the same sequence, the pKd [5, 36] was 9.70, the pKd [6, 36] was ≤ 5.30 and the pKd [7, 36] was ≤ 5.30.
With FTWPWMKLF the pKd [8] was 6.33.
RGDLETLGY gave a pIC50 ([9]; source organism: Vaccinia virus WR) of 5.03.
YMPSVVETL was tested, and the pKd [10] was ≥ 9.00, the pKd [11] was 8.05 and the pKd [12] was 7.44. The pKd [13, 37] was ≤ 4.70, the pKd [14] was 7.82 and the pKd [15] was 7.84. The pKd [16] was 6.00.
ESDPEGALW was tested, and the pKd [17, 37] was ≤ 4.70 and the pKd [18] was 6.41.
APDGIRGFP showed a pIC50 [1, 38] of 4.63.
MSPHRVPNY was tested, and the pKd [19, 39] was ≤ 4.70 and the pKd [17, 39] was ≤ 4.70.
Sequence MTMLIKAFK has a pKd [20] of 8.11, a pKd [21] of 6.71 and a pKd [22] of 8.35. For the same sequence, the pKd [4, 40] was ≤ 5.30, the pKd [6, 40] was ≤ 5.30 and the pKd [7, 40] was ≤ 5.30.
In the case of MPRQKIIGPL, the pKd ([23]; source organism: Influenza A virus (A/Swine/Colorado/23619/99(H3N2))) was 8.18.
In the case of MTPGRGLSK, the pKd [19, 41] was ≤ 4.70 and the pKd [17, 41] was ≤ 4.70.
With YMKERFTVL the pKd [24] was 7.82, the pKd [25] was 6.55 and the pKd [26, 42] was 6.83. The pKd [27, 42] was 6.76, the pKd [28, 42] was 5.82 and the pKd [4, 42] was ≤ 5.30. The pKd [5, 42] was 7.65, the pKd [6, 42] was ≤ 5.30 and the pKd [7, 42] was ≤ 5.30.
WMYNIQPYL gave a pKd [29, 43] of 7.08, a pKd [30, 43] of 6.34 and a pKd [31, 43] of 7.46.
For YVYPDNLPV, the pKd [29, 44] was 8.70, the pKd [32] was 5.66 and the pKd [13, 44] was 7.11.
Sequence KPVGWAMSF has a pKd ([23]; source organism: Shigella flexneri 2a str. 301) of 7.92, a pKd [33] of 5.40 and a pKd [34] of 9.40.
For ETRYSWAIL, the pKd [35] was 6.34.
With PDDGSYGEY the pIC50 [9, 38] was ≤ 3.56.
Sequence TSDGKEYTY has a pIC50 [9, 38] of 5.46.
In the case of RMMGKTNPL, the pKd [26, 45] was ≤ 4.70, the pKd [30, 45] was 6.81 and the pKd [27, 45] was ≥ 9.00. It also gave a pKd [28, 45] of 7.80 and a pKd [31, 45] of 7.01.
